This is an account of results in article PMC4039143, “Polyubiquitylation of AMF requires cooperation between the gp78 and TRIM25 ubiquitin ligases” (Oncotarget, 2013).

The test has as its target T1, His-tagged AMF expressed in and purified from E. coli (human, UniProt P06744 1-558).
T1 construct: autocrine motility factor (AMF) / phosphoglucose isomerase (PGI); the E. coli expression construct is not described; also called his-AMF; PGI; source: E. coli (BL21), purified (Ni-NTA agarose, PD-10 desalting); not shown: His, N-terminal, kept
Description: pull-down; GST fusions held on glutathione-agarose and washed; incubated with purified his-AMF or TRIM25 in buffer D (50 mM Tris/HCl pH 7.5, 100 mM NaCl, 1 mM DTT, 0.1% Tween20), 3 hr at 4 °C; retained protein detected by immunoblot. The conditions noted are these: both partners purified. (In western blotting, separated proteins are transferred to a membrane and probed.)

B1: GST fusion bearing the entire C-terminal (cytoplasmic) domain of gp78 (domain or fragment, human, UniProt Q9UKV5 309-643, looked up)
chain: IRRHKNYLRVVGNMEARFAVATPEELAVNNDDCAICWDSMQAARKLPCGHLFHNSCLRSWLEQDTSCPTCRMSLNIADNNRVREEHQGENLDENLVPVAAAEGRPRLNQHNHFFHFDGSRIASWLPSFSVEVMHTTNILGITQASNSQLNAMAHQIQEMFPQVPYHLVLQDLQLTRSVEITTDNILEGRIQVPFPTQRSDSIRPALNSPVERPSSDQEEGETSAQTERVPLDLSPRLEETLDFGEVEVEPSEVEDFEARGSRFSKSADERQRMLVQRKDELLQQARKRFLNKSSEDDAASESFLPSEGASSDPVTLRRRMLAAAAERRLQKQQTS
notes: Expression vector provided by A Weissman; also called GST-gp78C; gp78C; source: E. coli (BL21), lysate applied to glutathione-agarose and washed; also purified on glutathione-agarose
In the case of B1, the binding result is on record as “binds”.
